Measurements: patent US12173061B2, “Compositions and methods for treatment of chronic lung diseases” (Board of Regents, The University of Texas System, priority 2021, dated 2024)
Entries after “also recorded” stand apart in the source; their conditions may differ.

What was measured:
[1] = system: fLfs isolated from IPF lungs (hfLfs); assay: Pro-fibrogenic marker expression in fLfs in vitro (immunoblot and mRNA); assay type: cell-based, human; details: 2 μg/ml, 48 h, immunoblot
Protocol: FIGS. 3A-3B. Antibodies specific for M9 inhibited pro-fibrogenic markers expression in fLfs in vitro. hfLfs were serum starved and treated with PBS or 2 μg/ml M9 antibody (M9Ab), or 2 μg/ml M9Ab plus 20 μM CSP7 for 48 hours (FIG. 3A). After treatment, cells were harvested and cell lysates were immunoblotted for pro-fibrogenic markers and M9, and 3-actin was used as loading control.
FIG. 4. […]
FIGS. 7A-7M. […] Lung volumes (FIG. 7B) were measured by quantitative-CT renditions, and lung compliance (FIG. 7C) and elastance (FIG. 7D) were measured using a flexiVent system. […] Statistical significance (*P<0.05, **P<0.01, ***P<0.001 and ****P<0.0001) was assessed by one-way ANOVA with Turkey's multiple comparison.
FIGS. 9A-9O. […] FIG. 9B: Lung volumes were measured by quantitative-CT renditions. Lung compliance (FIG. 9C) and elastance (FIG. 9D) were measured using a flexiVent system. […] Statistical significance (*P<0.05, **P<0.01, ***P<0.001 and ****P<0.0001) was assessed by one-way ANOVA with Turkey's multiple comparison. fLfs isolated from IPF lungs treated with PBS or recombinant full length M9 (rM9^FL) protein (2 μg/ml) for 48 h in vitro were tested for pro-fibrogenic proteins (FIG. 9L). fLfs (from IPF lungs) treated with PBS or extracellular domain of rM9^FL protein (rM9^ECD) as in FIG. 9L were tested for pro-fibrogenic proteins (FIG. 9N). […]

[2] = system: BLM-induced pulmonary fibrosis; assay: BLM-induced established pulmonary fibrosis in mice, treatment d14-d21; assay type: in vivo
Protocol: FIGS. 9A-9O. M9 peptide and protein mitigated BLM-induced pulmonary fibrosis. Mice exposed to saline or 1.0 U/kg BLM by intratracheal instillation were treated with or without M9 peptide HGHVDPVKTPKI (SEQ ID NO: 4) (10 mg/kg/d) and M9 protein (SEQ ID NO: 1) 7.5 mg/kg/d) via IP injection daily for 7 days starting d14 after BLM injury. FIG. 9A: Representative micro-CT images at d21 after BLM exposure. FIG. 9B: Lung volumes were measured by quantitative-CT renditions. Lung compliance (FIG. 9C) and elastance (FIG. 9D) were measured using a flexiVent system. Lung weights (FIG. 9E) and body weights (FIG. 9F) are presented as bar graphs. Lung homogenates were tested for hydroxyproline (FIG. 9G), soluble collagen (FIG. 9H), pro-fibrogenic marker proteins (FIG. 9I) and mRNAs (FIG. 9J). Bars indicate mean±SD. Statistical significance (*P<0.05, **P<0.01, ***P<0.001 and ****P<0.0001) was assessed by one-way ANOVA with Turkey's multiple comparison. fLfs isolated from IPF lungs treated with PBS or recombinant full length M9 (rM9^FL) protein (2 μg/ml) for 48 h in vitro were tested for pro-fibrogenic proteins (FIG. 9L). fLfs (from IPF lungs) treated with PBS or extracellular domain of rM9^FL protein (rM9^ECD) as in FIG. 9L were tested for pro-fibrogenic proteins (FIG. 9N). The survival the mice treated with rM9^FL is shown FIG. 9M.
FIGS. 10A-10K. UNC5A (“U5”) peptide/protein mitigated BLM-induced pulmonary fibrosis. Mice exposed to saline or 1.0 U/kg BLM by intratracheal instillation were treated with or without U5 peptide (50 residues, SEQ ID NO: 7) (10 mg/kg/d) and full length U5 protein (SEQ ID NO: 5) (7.5 mg/kg/d) via IP injection daily for 7 days starting d14 after BLM injury. FIG. 10A: Representative micro-CT images at d21 after BLM exposure. FIG. 10B: Lung volumes were measured by quantitative-CT renditions. Lung compliance (FIG. 10C) and elastance (FIG. 10D) were measured using a flexiVent system. Lung weights (FIG. 10E) and body weights (FIG. 10F) are presented as bar graphs. Lung homogenates were tested for hydroxyproline (FIG. 10G), soluble collagen (FIG. 10H), pro-fibrogenic marker proteins (FIG. 10I) and mRNAs (FIG. 10J). Bars indicate mean±SD. Statistical significance (*P<0.05, **P<0.01, ***P<0.001 and ****P<0.0001) was assessed by one-way ANOVA with Turkey's multiple comparison.
FIGS. 11A-11K. ALG5 (“A5”) protein mitigated BLM-induced pulmonary fibrosis. Mice exposed to saline or 1.0 U/kg BLM by intratracheal instillation were treated with or without A5 protein (SEQ ID NO: 9) (7.5 mg/kg/d) via IP injection daily for 7 days starting d14 after BLM injury. FIG. 11A: Representative micro-CT images at d21 after BLM exposure. FIG. 11B: Lung volumes were measured by quantitative-CT renditions. Lung compliance (FIG. 11C) and elastance (FIG. 11D) were measured using a flexiVent system. Lung weights (FIG. 11E) and body weights (FIG. 11F) are presented as bar graphs. Lung homogenates were tested for hydroxyproline (FIG. 11G), soluble collagen (FIG. 11H), pro-fibrogenic marker proteins (FIG. 11I) and mRNAs (FIG. 11J). Bars indicate mean±SD. *P<0.05, **P<0.01, ***P<0.001 and ****P<0.0001 were obtained by one-way ANOVA with Turkey's multiple comparison.
FIGS. 12A-12E. WT mice with BLM-PF were treated with or without rM9^ECD (1.5 mg/kg) via intratracheal (IT) instillation daily for 7 d starting d 14 after BLM. Survival (FIG. 12A), body weights (FIG. 12B), lung volumes (FIG. 12C) and lung weights (FIG. 12D) were measured on d 21 post-BLM. Lung homogenates were tested for soluble collagen (FIG. 12E).
FIGS. 13A-13B. FIG. 13A: fLfs (IPF) treated with PBS or M9^mAb (2 μg/ml) or control IgG, tested for pro-fibrogenic proteins (i) and mRNAs (ii). FIG. 13B: WT mice with BLM-PF were left untreated, or intraperitoneal (IP) injected with control IgG or M9^mAb (2.5 mg/kg) daily for 7 d starting 14 d after IT BLM. Body weights (i) and total lung hydroxyproline (ii), and soluble collagen (iii) were measured. […]

[3] = protein 7.5 mg/kg/d IP, 7 days starting d14 after BLM
[4] = protein 7.5 mg/kg/d IP, 7 days starting d14 after BLM, flexiVent, d21

B1: rM9^ECD: recombinant extracellular domain of human MEGF9 (SEQ ID NO: 102) (protein, listed as Homo sapiens)
chain: MGWSCIILFLVATATGVHSAAVASAASAGNVTGGGGAAGQVDASPGPGLRGEPSHPFPRATAPTAQAPRTGPPRATVHRPLAATSPAQSPETTPLWATAGPSSTTFQAPLGPSPTTPPAAERTSTTSQAPTRPAPTTLSTTTGPAPTTPVATTVPAPTTPRTPTPDLPSSSNSSVLPTPPATEAPSSPPPGHQWPVAKMPQKYLGKYACESNLKSKYLPLTQPVMNLRVSEAVKTEYVCNCSVVGSLNVNRCNQTTGQCECRPGYQGLHCETCKEGFYLNYTSGLCQPCDCSPHGALSIPCNSSGKCQCKVGVIGSICDRCQDGYYGFSKNGCLPCQCNNRSASCDALTGACLNCQENSKGNHCEECKEGFYQSPDATKECLRCPCSAVTSTGSCSIKSSELEPECDQCKDGYIGPNCNKCENGYYNFDSICRKCQCHGHVDPVKTPKICKPESGECINCLHNTTGFWCENCLEGYVHDLEGNCIKKEVILPTPEGSTILVSNASLTTSVPTPVINSTFTPTTLQTIFSVSTSENSTSALADVSWTQFN
- pro-fibrogenic marker proteins (Col1, FN, TN-C and α-SMA) in fLfs [1]: reduced
- lung function ([2]; 1.5 mg/kg intratracheal (IT) instillation daily for 7 d starting d 14 after BLM): improved
- existing BLM-induced PF (overall) ([2]; WT mice with BLM-PF, 1.5 mg/kg intratracheal (IT) instillation daily for 7 d starting d 14, d 21, 1.5 mg/kg): resolved; also recorded: resolution
- survival rate ([2]; mice with BLM-induced existing PF treated with extracellular domain protein, dose not printed (FIG. 9)): significantly increased

B2: M9 protein: recombinant full length human MEGF9 protein (SEQ ID NO: 1) (protein, listed as Homo sapiens)
chain: MNGGAERAMRSLPSLGGLALLCCAAAAAAAAVASAASAGNVTGGGGAAGQVDASPGPGLRGEPSHPFPRATAPTAQAPRTGPPRATVHRPLAATSPAQSPETTPLWATAGPSSTTFQAPLGPSPTTPPAAERTSTTSQAPTRPAPTTLSTTTGPAPTTPVATTVPAPTTPRTPTPDLPSSSNSSVLPTPPATEAPSSPPPEYVCNCSVVGSLNVNRCNQTTGQCECRPGYQGLHCETCKEGFYLNYTSGLCQPCDCSPHGALSIPCNSSGKCQCKVGVIGSICDRCQDGYYGFSKNGCLPCQCNNRSASCDALTGACLNCQENSKGNHCEECKEGFYQSPDATKECLRCPCSAVTSTGSCSIKSSELEPECDQCKDGYIGPNCNKCENGYYNFDSICRKCQCHGHVDPVKTPKICKPESGECINCLHNTTGFWCENCLEGYVHDLEGNCIKKEVILPTPEGSTILVSNASLTTSVPTPVINSTFTPTTLQTIFSVSTSENSTSALADVSWTQFNIIILTVIIIVVVLLMGFVGAVYMYREYQNRKLNAPFWTIELKEDNISFSSYHDSIPNADVSGLLEDDGNEVAPNGQLTLTTPIHNYKA
- pro-fibrogenic marker proteins (Col1, FN, TN-C and α-SMA) in fLfs [1]: reduced
- survival rate ([2]; mice with BLM-induced existing PF, full length protein 7.5 mg/kg/d IP): significantly increased
- BLM-induced pulmonary fibrosis (overall) ([2]; mice, 1.0 U/kg BLM IT, protein 7.5 mg/kg/d IP daily for 7 days starting d14, d21): resolved; also recorded: mitigated
- BLM-induced fibrogenic marker proteins (Col1, FN, TN-C, α-SMA) in whole lung homogenates [2, 3]: marked inhibition
- body weight [2, 3]: improvement
- collagen and other extracellular matrix deposits (Trichrome staining of lung sections) [2, 3]: remarkable reduction
- fibrogenic marker transcripts in whole lung homogenates [2, 3]: marked inhibition
- lung weight [2, 3]: reduction
- lung compliance [2, 4]: improved
- lung elastance [2, 4]: improved
- whole lung total hydroxyproline ([2]; protein 7.5 mg/kg/d IP, 7 days starting d14 after BLM, lung homogenates): significant inhibition
- lung volume ([2]; protein 7.5 mg/kg/d IP, 7 days starting d14 after BLM, quantitative CT, d21): improved
